What all share (experiment): BLI
Common to all, as to details: both partners purified

Experiment [1] concerns the target T1, SARS-CoV-2 wild-type RBD (SARS-CoV-2 wild type).
Experiment [2] addresses T1, SARS-CoV-2 wild-type RBD. The source holds these as a separate data set.
In experiment [3] the target is T1, SARS-CoV-2 wild-type RBD. The source holds these as a separate data set.
The target in experiment [4] is SARS-CoV-2 RBD (residues 319-541), wild type (SARS-CoV-2, wild type, UniProt P0DTC2).
The target of experiment [5] is T1, SARS-CoV-2 wild-type RBD. This is another data set of the same source.

B1: R1-32 (antibody, V domains shown)
VH: EVQLVESGAEVKKPGSSVKVSCKASGGTFSSYAISWVRQAPGQGLEWMGGIIPILGIANYAQKFQGRVTITADKSTSTAYMELSSLRSEDTAVYYCARENGYSGYGAAANFDLWGRGTLVTVSS
VL: QSVLTQPPSVSGAPGQRVTISCTGSSSNIGAGYDVHWYQQLPGTAPKLLIYGNSNRPSGVPDRFSGSKSGTSASLAITGLQAEDEADYYCQSYDSSLSGSVFGGGTKLTVL
notes: human IgG1
One may read the koff as the rate constant with which the complex falls apart. Higher therefore signals fast dissociation. The term kon denotes the second-order rate constant of association. The Kd is the concentration at which binding is half-saturated. A lower Kd goes with tighter binding. On to B1, for which, in the experiment with SARS-CoV-2 wild-type RBD [1], the dissociation rate constant (koff) was determined as 0.000376 s⁻¹ and the kon was 472000 M⁻¹ s⁻¹. Further, in the experiment with SARS-CoV-2 wild-type RBD [2], the Kd was 2.8 nM, the dissociation rate constant (koff) was 0.00149 s⁻¹ and the kon is 533000 M⁻¹ s⁻¹.

B2: C092 (antibody, V domains shown)
VH: QVQLVQSGAEVKKPGSSVKVSCKASGGSFTNHFISWVRQAPGQGLEWMGRIIPILGTANYAQNFQGRVMMTADKSTSTAYMELSSLRSEDTAVYYCARDSGYSGYGSTYYMDVWGKGTTVTVSS
VL: QSVLTQPPSVSGAPGQRVTISCTGSNSNIGAGYDVHWYQQLPGAAPKLLIYGNNNRPSGVPDRFSGSKSDTSASLAITGLQVEDEADYYCQSYDSSLSDSVFGSGTKVTVL
notes: human IgG1
For the molecule B2, in the experiment with SARS-CoV-2 wild-type RBD [3], the Kd was 0.16 nM, the off-rate constant (koff) is 0.000103 s⁻¹ and the kon worked out at 642000 M⁻¹ s⁻¹.

B3: R1-32 (human IgG1 monoclonal antibody) (antibody, V domains shown)
VH: EVQLVESGAEVKKPGSSVKVSCKASGGTFSSYAISWVRQAPGQGLEWMGGIIPILGIANYAQKFQGRVTITADKSTSTAYMELSSLRSEDTAVYYCARENGYSGYGAAANFDLWGRGTLVTVSS
VL: QSVLTQPPSVSGAPGQRVTISCTGSSSNIGAGYDVHWYQQLPGTAPKLLIYGNSNRPSGVPDRFSGSKSGTSASLAITGLQAEDEADYYCQSYDSSLSGSVFGGGTKLTVL
Take B3: in experiment [4], the Kd was determined as 0.8 nM.

B4: C832 (antibody, V domains shown)
VH: QVQLVQSGAEVKKPGSSVKVSCKASGGTFSSYSISWVRQAPGQGLEWMGRIIPILGIASYAQKFQGRVTITADKSTSTVYMELTGLRSDDTAVYYCARDRGYSDYGSHYYMDVWGKGTTVTVSS
VL: QSVLTQPPSVSGAPGQRVTISCTGSSSNIGAGYDVHWYQQLPGTAPKLLIYINSNRPSGVPDRFSGSKSGTSASLAITGLQAEDEADYYCQSYDSSLSDSVFGGGTKLTVL
notes: human IgG1
In the experiment with SARS-CoV-2 wild-type RBD [3], B4 came in with a Kd of 0.63 nM, a koff of 0.000246 s⁻¹ and a kon of 387000 M⁻¹ s⁻¹.

B5: C091 (antibody, V domains shown)
VH: QVQLVQSGAEVKKPGSSVKVSCKASGGTFSSYTISWVRQAPGQGLEWMGRIIPILGIANYAQKFQGRVTITADKSTSTAYMELSSLRSEDTAVYYCARDSGYSGYGSTYYMDVWGKGTTVTVSS
VL: QSVLTQPPSVSGAPGQRVTISCTGSSSNIGAGYDVHWYQQLPGTAPKLLIYGNSNRPSGVPDRFSGSKSGTSASLAITGLQAEDEADYYCQSYDSSLSGSVFGTVTKVTVL
notes: human IgG1
In the experiment with SARS-CoV-2 wild-type RBD [3], B5 displayed a Kd of 9.75 nM, an off-rate constant (koff) of 0.00337 s⁻¹ and a kon of 346000 M⁻¹ s⁻¹.

B6: C807 (antibody, V domains shown)
VH: QVQLVQSGAEAKKPGSSVKVSCKASGGTFKSYIINWVRQAPGQGLEWMGEIIPIFGTANYAQKFQGRVTSTADESTSTAYMELSSLKSEDTAVYYCARGRGYSGYGASYYFDYWGQGTLVTVSS
VL: QSVLTQPPSVSGAPGQRVTISCTGSNSNIGAGYDVHWYQQLPGTAPKLLIYANSNRPSGVPDRFSGSKSGTSASLAITGLQAEDEADYYCQSYDSGLSGSVFGGGTKLTVL
notes: human IgG1
Consider B6, for which, in the experiment with SARS-CoV-2 wild-type RBD [3], binding was put at a Kd of 0.79 nM, the off-rate (koff) turned out to be 0.000431 s⁻¹ and the kon was 547000 M⁻¹ s⁻¹.

B7: C978 (antibody, V domains shown)
VH: QVQLVQSGAEVKKPGSSVKVSCKASGATFSNYIISWVRQAPGQGLEWMGRTIPLLDIANYAQKFQGRVTITADKSTRIVYMHLGSLTSEDTAVYYCATGKGYSSSSAAYYFDHWGQGTLVTVSS
VL: QSVLTQPPSVSGAPGQRVTISCTGTNSNIGAGYDIHWYQQLPGTAPKLLIYGSNNRPSGVPDRFSGSKSGTSASLAITGLQAEDEADYYCQSYDSSLSGSEVFGGGTKLTVL
notes: human IgG1
In the experiment with SARS-CoV-2 wild-type RBD [3], B7 displayed a dissociation constant Kd of 0.99 nM, an off-rate (koff) of 0.000524 s⁻¹ and a kon of 531000 M⁻¹ s⁻¹.

B8: FC08 (antibody, V domains shown)
VH: QLLQQSGAEVKKPGSSVKVSCKASGGTFSSYAISWVRQAPGQGLEWMGGIIPIIGIANYAQKFQGRVTITADKSTSTAYMELSSLRSEDTAVYYCARERGYSGYGAAYYFDYWGQGTLVTVSS
VL: SVLTQPPSVSGAPGQRVTISCTGSSSNIGAGYDVHWYQQLPGTAPKLLIYGNSNRPSGVPDRFSGSKSGTSASLAITGLQAEDEADYYCQSYDSSLSGSVFGGGTKLTVL
Regarding B8, in the experiment with SARS-CoV-2 wild-type RBD [5], the Kd was determined as 0.35 nM, the koff stood at 0.00028 s⁻¹ and the kon came out at 797000 M⁻¹ s⁻¹.

B9: C963 (antibody, V domains shown)
VH: QVQLVQSGAEVKKPGSSVRVSCKASGGTFSSFTITWVRQAPGQGLEWMGRIIPNLNIPNYAQRFQGRITITAEKSTSTAYLELSSLRSEDTAVYYCARGVGYSGSGSNWYFDLWGRGTLVTVSS
VL: QSVLTQPPSVSGAPGQRVTISCTGSSSNIGAGYDVHWYQQLPGTAPKLLISGHINRPSGVPDRFSGSTSGTSASLAITGLQAEDEADYYCQSYDSSLSDSVFGGGTKLTV
notes: human IgG1
As to B9, in the experiment with SARS-CoV-2 wild-type RBD [3], binding was put at a Kd of 0.84 nM, the koff is 0.000593 s⁻¹ and the kon is 709000 M⁻¹ s⁻¹.

B10: C941 (antibody, V domains shown)
VH: QVQLVQSGAEVKKPGSSVKVSCKASGGTSRSYPISWVRQAPGQGLEWMGRIIPIVGTANYAQRFQGRVTITADESTGTAYMELSSLRSEDTAVYYCARNRGYSDYGSVYYFDYWGQGTLVTVSS
VL: QSVLTQPPSVSGAPGQRVTISCTGSSSNIGAGYDVHWYQQLPGAAPKLLIYRNINRPSGVPDRFSGSKSGTSASLAITGLQADDEADYYCQSYDSSLSGSVFGGGTKLTV
notes: human IgG1
B10: in the experiment with SARS-CoV-2 wild-type RBD [3], the Kd came out at 0.77 nM, the koff is 0.000117 s⁻¹ and the on-rate (kon) is 153000 M⁻¹ s⁻¹.

These data come from paper PMC9519457 (Nature Microbiology, 2022).
